Assay [1] concerns the target T1, L1-CAM on L1-CAM(+) human tumor cells (human, UniProt P32004 20-1257). The assay can be described thus: cell-based or functional assay.
For assay [2], the target named is T1, L1-CAM on L1-CAM(+) human tumor cells. Description: cell-based or functional assay. This is another data set of the same source.
A further assay has as its target T2, CD3 on CD3(+) T cells (UniProt P07766 23-207).
T2 construct: whole, on cells; CD3 is a complex of several chains
The assay can be described thus: FACS immunostaining of CD3(+) T cells.

Assay [3] has as its target T3, L1-CAM-Fc (UniProt P32004 20-1120, limits assumed).
T3 construct: also called antigen L1-CAM-Fc; not shown: Fc part
The assay can be described thus: SPR (Biacore T100), L1-CAM-Fc immobilised on CM5 chip. The method, then: (§1) In Vitro Binding Kinetics by Biacore T-100 Biosensor (GE Healthcare, Uppsala, Sweden). CM5 sensor chip (Research grade) and related reagents were purchased from Biacore USA (Piscataway, NJ). Antigen L1-CAM-Fc or L1-CAM-His was directly immobilized onto the CM5 sensor chip according to the manufacturer's instructions. Purified monoclonal antibodies (MoAbs) (mouse, chimeric IgG1 and IgG4, and humanized IgG1 and IgG4 versions of E71 and E72, and their IgG1n glycoforms) were diluted in HBS-EP buffer at varying concentrations (41.7˜666.7 nM) prior to analysis. Samples were injected over the sensor surface at a flow rate of 30 μl/min over 1 min. Association time was set for 1 min, dissociation time was set for from 5 min to 15 min. At the end of each cycle, the surface was regenerated using 50 mM NaOH at a flow rate of 50 μl/min over 1 min. The data were analyzed by the bivalent analyte model and default parameter setting for the rate constants using the Biacore T-100 evaluation software, and the apparent association on rate constant (kₒₙ), dissociation off rate constant (koff) and equilibrium dissociation constant (Kd=koff/kₒₙ) were calculated.
The binding of huE71-BsAb and huE72-BsAb to both target cells and effector cells was tested by FACS immunostaining. huE71-BsAb was equally efficient as parental huE71 in binding to L1-CAM(+) neuroblastoma BE(2)C, whereas the binding of huE72-BsAb to BE(2)C was half of that observed with huE71-BsAb (FIG. 38(A)). For binding to CD3(+) T cells, both huE71-BsAb and huE72-BsAb were less efficient compared to huOKT3 IgG1; around 20 fold weaker than huOKT3 (FIG. 38(B)). The reduced avidity of the light chain-anchored scFv of the BsAbs for T cells was attributable in part to the spatial constraints of this format, but is advantageous for minimizing cytokine release especially when target cells were not present.
(Surface plasmon resonance follows binding to a sensor surface in real time, without labels.)

In assay [4] the target is T3, L1-CAM-Fc. The description is as above. The method, then:
as §1
The source holds these as a separate data set.

The next assay addresses T4, L1-CAM-His.
T4 construct: recombinant soluble His-tagged antigen immobilised on the CM5 chip; also called antigen L1-CAM-His
The assay can be described thus: SPR (Biacore T100), L1-CAM-His immobilised on CM5 chip. Here is the method:
as §1

Changes are numbered by the printed parent chain. Like-named read-outs stand apart in the source and are kept apart here.

What is called Kd is the free concentration of one partner at which half of the binding sites on the other are occupied at equilibrium, for simple one-to-one binding. A high value points to lower affinity. The term koff denotes a measure of how fast the partners let go of each other. Read a low koff as slow dissociation. The term kon denotes the rate constant with which the complex forms.

T4 sequence (P32004 20-1120): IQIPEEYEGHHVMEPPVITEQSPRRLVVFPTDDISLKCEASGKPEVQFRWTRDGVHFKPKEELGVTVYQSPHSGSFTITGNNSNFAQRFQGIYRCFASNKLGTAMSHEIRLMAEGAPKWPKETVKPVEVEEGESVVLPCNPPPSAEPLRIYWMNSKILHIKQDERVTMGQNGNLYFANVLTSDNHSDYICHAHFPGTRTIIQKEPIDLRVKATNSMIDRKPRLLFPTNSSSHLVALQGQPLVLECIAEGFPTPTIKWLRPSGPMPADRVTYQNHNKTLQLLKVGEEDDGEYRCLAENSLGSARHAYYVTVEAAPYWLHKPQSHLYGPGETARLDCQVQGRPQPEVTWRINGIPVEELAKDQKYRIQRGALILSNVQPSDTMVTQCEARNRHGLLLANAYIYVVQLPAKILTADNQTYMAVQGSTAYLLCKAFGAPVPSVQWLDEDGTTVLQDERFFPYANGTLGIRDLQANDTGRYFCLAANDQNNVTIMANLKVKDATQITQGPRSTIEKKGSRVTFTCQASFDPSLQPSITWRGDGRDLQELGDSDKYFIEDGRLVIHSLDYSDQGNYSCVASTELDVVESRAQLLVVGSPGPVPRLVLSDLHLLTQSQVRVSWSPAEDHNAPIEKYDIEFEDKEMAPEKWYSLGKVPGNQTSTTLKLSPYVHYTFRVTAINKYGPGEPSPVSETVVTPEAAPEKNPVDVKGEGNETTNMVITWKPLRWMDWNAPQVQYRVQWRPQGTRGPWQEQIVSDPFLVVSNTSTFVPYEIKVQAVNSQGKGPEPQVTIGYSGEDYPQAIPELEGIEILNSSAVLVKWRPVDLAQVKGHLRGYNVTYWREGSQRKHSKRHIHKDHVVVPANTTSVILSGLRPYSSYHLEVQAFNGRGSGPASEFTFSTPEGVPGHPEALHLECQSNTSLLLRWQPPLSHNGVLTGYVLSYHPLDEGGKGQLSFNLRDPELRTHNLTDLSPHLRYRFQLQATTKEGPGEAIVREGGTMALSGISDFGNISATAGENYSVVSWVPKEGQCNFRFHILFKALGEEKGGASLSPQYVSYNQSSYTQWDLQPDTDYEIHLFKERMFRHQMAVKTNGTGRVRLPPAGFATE
T3 sequence (P32004 20-1120 limits assumed): as the sequence (P32004 20-1120) above
T1 sequence (P32004 20-1257 limits assumed): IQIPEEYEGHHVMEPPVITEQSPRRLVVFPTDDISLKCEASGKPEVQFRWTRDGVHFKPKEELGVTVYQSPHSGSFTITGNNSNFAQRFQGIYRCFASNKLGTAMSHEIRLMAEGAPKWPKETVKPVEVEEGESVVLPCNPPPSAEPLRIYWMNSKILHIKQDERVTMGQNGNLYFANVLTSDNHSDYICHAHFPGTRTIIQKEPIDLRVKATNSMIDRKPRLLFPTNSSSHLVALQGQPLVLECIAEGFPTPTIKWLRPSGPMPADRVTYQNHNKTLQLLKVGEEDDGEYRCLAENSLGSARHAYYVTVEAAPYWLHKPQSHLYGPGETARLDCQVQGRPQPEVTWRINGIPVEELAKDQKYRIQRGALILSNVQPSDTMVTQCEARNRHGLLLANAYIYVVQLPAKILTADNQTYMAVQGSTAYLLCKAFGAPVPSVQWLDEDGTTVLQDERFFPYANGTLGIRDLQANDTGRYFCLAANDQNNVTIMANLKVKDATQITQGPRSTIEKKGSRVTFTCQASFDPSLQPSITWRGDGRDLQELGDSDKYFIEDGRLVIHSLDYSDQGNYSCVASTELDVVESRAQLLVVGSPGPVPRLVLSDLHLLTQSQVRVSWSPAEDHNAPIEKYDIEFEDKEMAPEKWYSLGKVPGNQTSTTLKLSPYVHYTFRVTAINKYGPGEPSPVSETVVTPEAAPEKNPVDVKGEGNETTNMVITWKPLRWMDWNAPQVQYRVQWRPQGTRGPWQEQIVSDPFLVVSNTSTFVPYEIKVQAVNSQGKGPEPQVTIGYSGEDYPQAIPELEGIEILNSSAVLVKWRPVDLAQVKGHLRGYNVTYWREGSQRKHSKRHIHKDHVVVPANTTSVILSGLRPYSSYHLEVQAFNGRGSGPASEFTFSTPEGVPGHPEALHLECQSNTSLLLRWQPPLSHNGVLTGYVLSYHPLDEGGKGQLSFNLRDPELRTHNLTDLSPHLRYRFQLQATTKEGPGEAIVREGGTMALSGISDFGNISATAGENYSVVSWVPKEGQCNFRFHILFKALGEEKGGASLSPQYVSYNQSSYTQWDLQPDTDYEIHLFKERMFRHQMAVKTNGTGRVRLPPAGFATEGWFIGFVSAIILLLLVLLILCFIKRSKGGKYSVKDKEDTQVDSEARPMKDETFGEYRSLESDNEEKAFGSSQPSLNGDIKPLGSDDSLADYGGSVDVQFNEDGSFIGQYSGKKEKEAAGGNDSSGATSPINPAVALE
T2 sequence (P07766 23-207): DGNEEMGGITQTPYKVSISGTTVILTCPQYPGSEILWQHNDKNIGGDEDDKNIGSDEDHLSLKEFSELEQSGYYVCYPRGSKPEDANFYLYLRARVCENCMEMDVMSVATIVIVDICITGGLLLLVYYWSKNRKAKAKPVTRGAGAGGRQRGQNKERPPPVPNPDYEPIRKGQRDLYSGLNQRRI

B1: huE72-BsAb (huE72-huOKT3) (bispecific antibody, human IgG1, kappa, N297A)
heavy: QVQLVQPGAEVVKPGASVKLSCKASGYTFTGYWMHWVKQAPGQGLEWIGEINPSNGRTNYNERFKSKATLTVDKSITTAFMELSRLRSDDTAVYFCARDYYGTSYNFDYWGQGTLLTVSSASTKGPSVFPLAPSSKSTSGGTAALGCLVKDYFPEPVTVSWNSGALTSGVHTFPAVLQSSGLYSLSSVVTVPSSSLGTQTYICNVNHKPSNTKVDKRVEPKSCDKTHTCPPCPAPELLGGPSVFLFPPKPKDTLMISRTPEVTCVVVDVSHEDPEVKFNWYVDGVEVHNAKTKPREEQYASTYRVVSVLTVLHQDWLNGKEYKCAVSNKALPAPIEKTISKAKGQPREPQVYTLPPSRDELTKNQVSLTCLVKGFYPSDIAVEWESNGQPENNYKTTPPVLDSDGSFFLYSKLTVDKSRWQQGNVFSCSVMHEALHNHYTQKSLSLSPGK
light: DIQMTQSPSSLSVSVGDRVTITCKANEDINNRLAWYQQKPGKAPKLLISGATNLVTGVPSRFSGSGSGTDYTLTISSLQPEDFATYYCQQYWSTPFTFGQGTELEIKRTVAAPSVFIFPPSDEQLKSGTASVVCLLNNFYPREAKVQWKVDNALQSGNSQESVTEQDSKDSTYSLSSTLTLSKADYEKHKVYACEVTHQGLSSPVTKSFNRGECTSGGGGSGGGGSGGGGSQVQLVQSGGGVVQPGRSLRLSCKASGYTFTRYTMHWVRQAPGKCLEWIGYINPSRGYTNYNQKFKDRFTISRDNSKNTAFLQMDSLRPEDTGVYFCARYYDDHYSLDYWGQGTPVTVSSGGGGSGGGGSGGGGSGGGGSGGGGSGGGGSDIQMTQSPSSLSASVGDRVTITCSASSSVSYMNWYQQTPGKAPKRWIYDTSKLASGVPSRFSGSGSGTDYTFTISSLQPEDIATYYCQQWSSNPFTFGCGTKLQITR
notes: IgG-scFv format with huOKT3 scFv on the light chain; also called humanized E72-BsAb
In the case of B1, the “T cell cytotoxicity EC50, 4-hour 51Cr release assay, activated T cells (E:T ratio=10:1), IMR32-luciferase cell line” value in assay [1] is 50 pM. In addition, in assay [2], the “EC50 of T cell cytotoxicity (4 h 51Cr release, E:T 10:1) on BE(1)N neuroblastoma cells (L1CAM MFI 614)” value was 14 pM; the “EC50 of T cell cytotoxicity (4 h 51Cr release, E:T 10:1) on BE(2)C neuroblastoma cells (L1CAM MFI 608)” value was 50 pM; the “EC50 of T cell cytotoxicity (4 h 51Cr release, E:T 10:1) on BE(2)S neuroblastoma cells (L1CAM MFI 166)” value stood at 251 pM; the “EC50 of T cell cytotoxicity (4 h 51Cr release, E:T 10:1) on HTB24 breast CA cells (L1CAM MFI 431)” value came out at 27 pM. Further, in assay [2], the “EC50 of T cell cytotoxicity (4 h 51Cr release, E:T 10:1) on HTB26 breast CA cells (L1CAM MFI 33)” value is 56 pM; the “EC50 of T cell cytotoxicity (4 h 51Cr release, E:T 10:1) on IMR32 LUC neuroblastoma cells (L1CAM MFI 285)” value worked out at 50 pM; the “EC50 of T cell cytotoxicity (4 h 51Cr release, E:T 10:1) on MCF7 breast CA cells (L1CAM MFI 54)” value was 100 pM; the “EC50 of T cell cytotoxicity (4 h 51Cr release, E:T 10:1) on NB1691 neuroblastoma cells (L1CAM MFI 742)” value was 31 pM. In assay [2], the “EC50 of T cell cytotoxicity (4 h 51Cr release, E:T 10:1) on NMB7 neuroblastoma cells (L1CAM MFI 224)” value was determined as 46 pM; the “EC50 of T cell cytotoxicity (4 h 51Cr release, E:T 10:1) on SKMEL5 melanoma cells (L1CAM MFI 269)” value is 27 pM; the “EC50 of T cell cytotoxicity (4 h 51Cr release, E:T 10:1) on SKMEL28 melanoma cells (L1CAM MFI 184)” value came to 140 pM; the “EC50 of T cell cytotoxicity (4 h 51Cr release, E:T 10:1) on SKNMM LUC neuroblastoma cells (L1CAM MFI 598)” value is 71 pM. In assay [2], the “EC50 of T cell cytotoxicity (4 h 51Cr release, E:T 10:1) on SKNSH neuroblastoma cells (L1CAM MFI 23)” value was determined as 158 pM. Further, the “fold weaker binding than huOKT3 IgG1” value with CD3 on CD3(+) T cells is around 20 fold. Moreover, in the assay with L1-CAM-Fc [3], the Kd turned out to be 5280 pM, the koff worked out at 0.000189 s⁻¹ and the kon was determined as 35800 M⁻¹ s⁻¹.

B2: huE72-IgG1 (huE72 H1/L2) (antibody, V domains shown)
VH: QVQLVQPGAEVVKPGASVKLSCKASGYTFTGYWMHWVKQAPGQGLEWIGEINPSNGRTNYNERFKSKATLTVDKSITTAFMELSRLRSDDTAVYFCARDYYGTSYNFDYWGQGTLLTVSS
VL: DIQMTQSPSSLSVSVGDRVTITCKANEDINNRLAWYQQKPGKAPKLLISGATNLVTGVPSRFSGSGSGTDYTLTISSLQPEDFATYYCQQYWSTPFTFGQGTELEIKR
notes: Human IgG1; also called humanized E72 IgG1
Molecule B2 displayed a Kd with L1-CAM-Fc [4] of 252 pM. In the assay with L1-CAM-Fc [3], this molecule yielded a Kd of 1880 pM, a koff of 0.000139 s⁻¹ and a kon of 74000 M⁻¹ s⁻¹. This molecule yielded a Kd with L1-CAM-His of 270 pM.

B3: E72-H2L2 (antibody, human IgG1, kappa, V domains shown)
VH: B2 VH with V12K, K38R, K67R, T77S, F80Y
VL: B2 VL
notes: also called huE72 H2/L2
With B3, the Kd worked out at 536 pM with L1-CAM-Fc [4] and 667 pM with L1-CAM-His.

B4: E72-H1L1 (antibody, human IgG1, kappa, V domains shown)
VH: B2 VH
VL: B2 VL with P8S, L11F, A43S, K45R, P80A
notes: also called huE72 H1/L1
Turning to B4, the figures for the Kd with L1-CAM-Fc [4] and with L1-CAM-His were 89.3 pM and 114 pM, respectively.

B5: E72-H2L1 (antibody, human IgG1, kappa, V domains shown)
VH: B2 VH with V12K, K38R, K67R, T77S, F80Y
VL: B2 VL with P8S, L11F, A43S, K45R, P80A
notes: also called huE72 H2/L1
B5: the Kd was found to be 353 pM with L1-CAM-Fc [4] and 355 pM in the assay with L1-CAM-His.

B6: E71 (antibody, V domains shown)
VH: QVQLQQPGDELVKPGASVKLSCKASGYTFTSYWMQWVKQRPGQGLEWIGEINPSNGRTNYNEMFKSKATLTVDKSSSTAYMQLSSLTSEDSAVYYCALYDGYYAMDYWGQGTSVTVSS
VL: DIVMSQSPSSLAVSVGEKVTMSCKSSQSLLYSSNQKNYLAWYQQKPGQSPKLLIYWASTRESGVPDRFTGSGSGTDFTLTISSVKAEDLALYYCQQYHSYPFTFGSGTKLEIK
notes: parental murine anti-L1-CAM antibody; also called mouse E71; murine E71; copies: 2 + 2
B6 came in with a Kd in the assay with L1-CAM-Fc [4] of 314 pM. In the assay with L1-CAM-Fc [3], the Kd worked out at 2230 pM, the koff worked out at 0.000199 s⁻¹ and the kon worked out at 89300 M⁻¹ s⁻¹.

B7: huE71-H2L1 (antibody, human IgG1, kappa, V domains shown)
VH: QVQLVQSGSELKKPGASVKLSCKASGYTFTSYWMQWVRQAPGQGLEWIGEINPSNGRTNYNEMFKSRAVLSVDTSVSTAYMQLCSLKAEDTAVYYCALYDGYYAMDYWGQGTLVTVSS
VL: DIVMTQSPSSLAVSVGERVTMSCKSSQSLLYSSNQKNYLAWYQQKPGQSPKLLIYWASTRESGVPDRFSGSGSGTDFTLTISSVKAEDVALYYCQQYHSYPFTFGQGTKLEIKR
Consider B7, for which, in the assay with L1-CAM-Fc [4], the Kd stood at 4260 pM.

B8: huE71-H1L2 (antibody, human IgG1, kappa, V domains shown)
VH: B6 VH with Q5V, T69V, T71S, S76V, S88A, S91T, S113L
VL: B7 VL with S9D, V15L, S22N, S49P, V84L, K85Q
B8 came in with a Kd with L1-CAM-Fc [4] of 517 pM.

B9: huE71-H2L2 (antibody, human IgG1, kappa, V domains shown)
VH: B7 VH
VL: B7 VL with S9D, V15L, S22N, S49P, V84L, K85Q
B9: the Kd with L1-CAM-Fc [4] was determined as 2720 pM.
